From US10087225B2, “Formulation of MK2 inhibitor peptides” (MOERAE MATRIX, INC., priority 2015, dated 2018)

Columns and labels:
Test in all cases: Kinase Profiling Assay
Format in all cases: biochemical
MINK(h) = MINK(h) (Homo sapiens, UniProt Q8N4C8)
Rsk1(h) = Rsk1(h) (Homo sapiens, UniProt Q15418)
HIPK2(h) = HIPK2(h) (Homo sapiens, UniProt Q9H2X6)
IKKα(h) = target: T1, IKKα(h) (Homo sapiens, UniProt O15111)
T1 sequence (O15111 1-745): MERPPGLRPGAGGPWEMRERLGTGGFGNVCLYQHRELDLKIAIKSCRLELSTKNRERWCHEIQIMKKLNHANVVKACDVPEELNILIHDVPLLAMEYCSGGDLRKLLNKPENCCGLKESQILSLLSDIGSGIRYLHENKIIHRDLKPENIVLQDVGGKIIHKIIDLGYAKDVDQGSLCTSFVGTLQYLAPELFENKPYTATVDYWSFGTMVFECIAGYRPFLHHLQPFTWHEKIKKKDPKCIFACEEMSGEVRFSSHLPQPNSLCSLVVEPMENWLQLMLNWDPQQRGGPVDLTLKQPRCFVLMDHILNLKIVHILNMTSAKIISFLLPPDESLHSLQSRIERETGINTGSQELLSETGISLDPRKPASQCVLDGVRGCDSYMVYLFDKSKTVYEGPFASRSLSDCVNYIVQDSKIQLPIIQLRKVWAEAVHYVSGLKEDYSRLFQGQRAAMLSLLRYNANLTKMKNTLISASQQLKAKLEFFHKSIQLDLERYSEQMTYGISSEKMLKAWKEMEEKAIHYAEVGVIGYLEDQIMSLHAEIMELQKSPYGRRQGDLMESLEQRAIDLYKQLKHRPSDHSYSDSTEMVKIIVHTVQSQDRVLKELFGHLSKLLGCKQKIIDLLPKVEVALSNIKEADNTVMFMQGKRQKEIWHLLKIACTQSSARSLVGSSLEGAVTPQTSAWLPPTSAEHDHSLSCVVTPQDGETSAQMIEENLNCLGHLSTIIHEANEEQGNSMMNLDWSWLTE

FGFR4(h) = FGFR4(h) (Homo sapiens, UniProt P22455); conditions: 100 μM
SAPK2b(h) = SAPK2b(h) (Homo sapiens, UniProt Q15759); conditions: 100 μM
Sequence of SAPK2b(h) (Q15759 whole entry): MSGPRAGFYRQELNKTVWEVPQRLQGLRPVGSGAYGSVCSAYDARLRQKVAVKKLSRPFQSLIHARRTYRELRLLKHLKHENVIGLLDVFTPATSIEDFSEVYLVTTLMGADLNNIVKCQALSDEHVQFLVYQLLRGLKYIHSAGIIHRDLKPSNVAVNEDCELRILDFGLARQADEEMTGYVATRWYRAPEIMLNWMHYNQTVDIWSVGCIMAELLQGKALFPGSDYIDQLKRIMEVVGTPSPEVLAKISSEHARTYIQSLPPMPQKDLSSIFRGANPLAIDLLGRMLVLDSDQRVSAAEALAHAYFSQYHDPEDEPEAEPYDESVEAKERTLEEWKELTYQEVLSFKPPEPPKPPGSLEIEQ

Arg(h) = Arg(h) (Homo sapiens, UniProt P42684); conditions: 100 μM
Sequence of Arg(h) (P42684 whole entry): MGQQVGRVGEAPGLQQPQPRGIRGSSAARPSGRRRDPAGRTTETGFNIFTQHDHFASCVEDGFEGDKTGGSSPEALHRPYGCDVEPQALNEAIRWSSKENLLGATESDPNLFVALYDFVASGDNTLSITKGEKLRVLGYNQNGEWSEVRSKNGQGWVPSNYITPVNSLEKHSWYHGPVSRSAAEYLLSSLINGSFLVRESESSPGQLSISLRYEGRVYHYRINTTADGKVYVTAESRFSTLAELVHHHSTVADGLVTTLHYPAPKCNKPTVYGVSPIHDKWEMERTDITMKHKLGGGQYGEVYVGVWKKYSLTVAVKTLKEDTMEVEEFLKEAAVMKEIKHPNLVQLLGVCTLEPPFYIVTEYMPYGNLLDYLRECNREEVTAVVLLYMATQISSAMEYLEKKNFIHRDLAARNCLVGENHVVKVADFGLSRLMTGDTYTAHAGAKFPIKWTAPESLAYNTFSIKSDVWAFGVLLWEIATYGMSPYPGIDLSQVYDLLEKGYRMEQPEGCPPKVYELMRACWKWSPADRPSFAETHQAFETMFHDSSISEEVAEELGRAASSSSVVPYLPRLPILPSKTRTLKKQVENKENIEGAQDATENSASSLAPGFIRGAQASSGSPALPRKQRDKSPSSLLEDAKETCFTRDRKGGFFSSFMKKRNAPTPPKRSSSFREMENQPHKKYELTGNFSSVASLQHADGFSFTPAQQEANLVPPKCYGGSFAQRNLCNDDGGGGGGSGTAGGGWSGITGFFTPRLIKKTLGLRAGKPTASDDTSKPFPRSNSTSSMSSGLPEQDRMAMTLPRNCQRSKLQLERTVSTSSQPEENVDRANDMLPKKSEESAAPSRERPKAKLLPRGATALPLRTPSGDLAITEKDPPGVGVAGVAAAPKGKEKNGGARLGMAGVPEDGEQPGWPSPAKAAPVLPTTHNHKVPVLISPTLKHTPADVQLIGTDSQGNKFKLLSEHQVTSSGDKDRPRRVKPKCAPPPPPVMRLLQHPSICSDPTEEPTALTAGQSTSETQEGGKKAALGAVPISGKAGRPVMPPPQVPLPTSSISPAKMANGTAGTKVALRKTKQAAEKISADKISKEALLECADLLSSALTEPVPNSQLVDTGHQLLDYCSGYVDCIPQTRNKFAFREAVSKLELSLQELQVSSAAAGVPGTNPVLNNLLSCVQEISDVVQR

TBK1(h) = target: T2, TBK1(h) (Homo sapiens, UniProt Q9UHD2); conditions: 100 μM
T2 sequence (Q9UHD2 1-729): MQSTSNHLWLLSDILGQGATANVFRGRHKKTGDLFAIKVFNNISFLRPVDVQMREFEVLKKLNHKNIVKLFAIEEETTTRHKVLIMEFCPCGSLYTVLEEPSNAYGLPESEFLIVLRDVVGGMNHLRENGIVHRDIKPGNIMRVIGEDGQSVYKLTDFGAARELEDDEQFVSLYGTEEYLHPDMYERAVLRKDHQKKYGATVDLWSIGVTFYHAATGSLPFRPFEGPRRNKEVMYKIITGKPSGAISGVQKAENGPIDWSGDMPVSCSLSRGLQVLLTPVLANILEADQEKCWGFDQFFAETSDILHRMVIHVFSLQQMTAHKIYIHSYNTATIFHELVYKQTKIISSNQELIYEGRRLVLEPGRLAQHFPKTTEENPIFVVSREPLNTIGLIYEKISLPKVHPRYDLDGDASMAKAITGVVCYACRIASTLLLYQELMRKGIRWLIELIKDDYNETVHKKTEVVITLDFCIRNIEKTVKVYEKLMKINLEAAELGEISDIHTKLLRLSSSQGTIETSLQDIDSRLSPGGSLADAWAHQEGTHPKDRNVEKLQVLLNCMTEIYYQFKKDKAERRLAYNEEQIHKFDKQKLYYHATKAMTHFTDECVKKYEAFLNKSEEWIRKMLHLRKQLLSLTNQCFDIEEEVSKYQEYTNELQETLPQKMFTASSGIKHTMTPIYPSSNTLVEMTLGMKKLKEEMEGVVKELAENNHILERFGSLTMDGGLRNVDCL

NEK11(h) = target: T3, NEK11(h) (Homo sapiens, UniProt Q8NG66); conditions: 100 μM
T3 sequence (Q8NG66 1-645): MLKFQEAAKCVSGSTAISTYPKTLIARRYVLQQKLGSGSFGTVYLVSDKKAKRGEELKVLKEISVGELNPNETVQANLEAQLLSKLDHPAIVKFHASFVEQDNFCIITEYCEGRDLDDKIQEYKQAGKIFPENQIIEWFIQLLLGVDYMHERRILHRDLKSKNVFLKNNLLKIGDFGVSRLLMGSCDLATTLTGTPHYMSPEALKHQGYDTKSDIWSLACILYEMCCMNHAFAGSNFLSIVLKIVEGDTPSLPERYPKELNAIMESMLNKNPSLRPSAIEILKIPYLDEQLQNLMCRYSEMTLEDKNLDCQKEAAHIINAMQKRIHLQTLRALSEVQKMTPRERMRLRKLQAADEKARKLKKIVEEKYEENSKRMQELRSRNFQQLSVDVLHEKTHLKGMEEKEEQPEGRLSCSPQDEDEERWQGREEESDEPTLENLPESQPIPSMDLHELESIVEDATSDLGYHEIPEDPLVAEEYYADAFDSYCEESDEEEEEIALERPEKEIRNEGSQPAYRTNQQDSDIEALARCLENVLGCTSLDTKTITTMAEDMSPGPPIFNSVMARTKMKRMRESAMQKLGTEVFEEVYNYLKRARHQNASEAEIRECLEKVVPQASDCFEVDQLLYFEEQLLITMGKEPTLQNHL

PhKγ2(h) = target: T4, PhKγ2(h) (Homo sapiens, UniProt P15735); conditions: 100 μM
T4 sequence (P15735 1-406): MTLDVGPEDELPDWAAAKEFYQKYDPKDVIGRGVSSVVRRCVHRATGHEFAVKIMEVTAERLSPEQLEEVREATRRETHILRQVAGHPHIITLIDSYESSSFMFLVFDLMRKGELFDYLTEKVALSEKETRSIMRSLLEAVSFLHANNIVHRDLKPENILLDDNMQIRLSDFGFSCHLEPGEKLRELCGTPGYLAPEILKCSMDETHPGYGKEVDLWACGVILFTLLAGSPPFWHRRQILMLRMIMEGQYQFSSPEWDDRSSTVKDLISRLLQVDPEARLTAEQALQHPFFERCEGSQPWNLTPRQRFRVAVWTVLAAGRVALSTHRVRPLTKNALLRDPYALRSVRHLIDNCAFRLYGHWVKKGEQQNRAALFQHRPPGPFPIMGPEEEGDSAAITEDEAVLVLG

Sequence of HIPK2(h) (Q9H2X6 whole entry): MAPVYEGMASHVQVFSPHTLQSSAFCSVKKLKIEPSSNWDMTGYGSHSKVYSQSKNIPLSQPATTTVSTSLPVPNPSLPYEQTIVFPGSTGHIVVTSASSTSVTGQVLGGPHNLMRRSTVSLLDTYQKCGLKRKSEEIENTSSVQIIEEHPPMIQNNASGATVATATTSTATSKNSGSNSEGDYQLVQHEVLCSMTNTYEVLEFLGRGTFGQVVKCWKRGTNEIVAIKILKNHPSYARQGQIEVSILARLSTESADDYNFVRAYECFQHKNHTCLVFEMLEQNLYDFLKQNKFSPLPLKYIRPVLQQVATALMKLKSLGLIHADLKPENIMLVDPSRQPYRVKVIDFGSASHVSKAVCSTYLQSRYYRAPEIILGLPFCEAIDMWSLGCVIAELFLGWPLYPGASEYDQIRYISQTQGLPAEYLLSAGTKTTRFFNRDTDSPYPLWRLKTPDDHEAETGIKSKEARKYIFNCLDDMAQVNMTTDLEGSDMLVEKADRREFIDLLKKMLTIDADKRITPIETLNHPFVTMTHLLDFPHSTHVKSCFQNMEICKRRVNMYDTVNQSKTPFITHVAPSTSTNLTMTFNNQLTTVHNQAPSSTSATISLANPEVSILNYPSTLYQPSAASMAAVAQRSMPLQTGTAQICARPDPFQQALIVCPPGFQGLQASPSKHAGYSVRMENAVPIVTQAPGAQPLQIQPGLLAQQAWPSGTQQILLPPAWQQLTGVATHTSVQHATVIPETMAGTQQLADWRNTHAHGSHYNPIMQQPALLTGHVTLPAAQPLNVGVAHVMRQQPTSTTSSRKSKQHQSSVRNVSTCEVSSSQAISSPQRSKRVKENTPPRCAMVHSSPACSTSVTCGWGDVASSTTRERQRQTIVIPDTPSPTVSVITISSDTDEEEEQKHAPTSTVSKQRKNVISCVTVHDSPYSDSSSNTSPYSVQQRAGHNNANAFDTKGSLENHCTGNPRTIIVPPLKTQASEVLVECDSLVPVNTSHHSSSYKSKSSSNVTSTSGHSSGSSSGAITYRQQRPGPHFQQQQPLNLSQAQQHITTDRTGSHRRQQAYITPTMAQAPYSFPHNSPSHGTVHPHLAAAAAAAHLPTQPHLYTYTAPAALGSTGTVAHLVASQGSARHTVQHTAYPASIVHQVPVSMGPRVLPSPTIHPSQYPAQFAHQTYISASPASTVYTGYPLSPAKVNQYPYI
Sequence of MINK(h) (Q8N4C8 whole entry): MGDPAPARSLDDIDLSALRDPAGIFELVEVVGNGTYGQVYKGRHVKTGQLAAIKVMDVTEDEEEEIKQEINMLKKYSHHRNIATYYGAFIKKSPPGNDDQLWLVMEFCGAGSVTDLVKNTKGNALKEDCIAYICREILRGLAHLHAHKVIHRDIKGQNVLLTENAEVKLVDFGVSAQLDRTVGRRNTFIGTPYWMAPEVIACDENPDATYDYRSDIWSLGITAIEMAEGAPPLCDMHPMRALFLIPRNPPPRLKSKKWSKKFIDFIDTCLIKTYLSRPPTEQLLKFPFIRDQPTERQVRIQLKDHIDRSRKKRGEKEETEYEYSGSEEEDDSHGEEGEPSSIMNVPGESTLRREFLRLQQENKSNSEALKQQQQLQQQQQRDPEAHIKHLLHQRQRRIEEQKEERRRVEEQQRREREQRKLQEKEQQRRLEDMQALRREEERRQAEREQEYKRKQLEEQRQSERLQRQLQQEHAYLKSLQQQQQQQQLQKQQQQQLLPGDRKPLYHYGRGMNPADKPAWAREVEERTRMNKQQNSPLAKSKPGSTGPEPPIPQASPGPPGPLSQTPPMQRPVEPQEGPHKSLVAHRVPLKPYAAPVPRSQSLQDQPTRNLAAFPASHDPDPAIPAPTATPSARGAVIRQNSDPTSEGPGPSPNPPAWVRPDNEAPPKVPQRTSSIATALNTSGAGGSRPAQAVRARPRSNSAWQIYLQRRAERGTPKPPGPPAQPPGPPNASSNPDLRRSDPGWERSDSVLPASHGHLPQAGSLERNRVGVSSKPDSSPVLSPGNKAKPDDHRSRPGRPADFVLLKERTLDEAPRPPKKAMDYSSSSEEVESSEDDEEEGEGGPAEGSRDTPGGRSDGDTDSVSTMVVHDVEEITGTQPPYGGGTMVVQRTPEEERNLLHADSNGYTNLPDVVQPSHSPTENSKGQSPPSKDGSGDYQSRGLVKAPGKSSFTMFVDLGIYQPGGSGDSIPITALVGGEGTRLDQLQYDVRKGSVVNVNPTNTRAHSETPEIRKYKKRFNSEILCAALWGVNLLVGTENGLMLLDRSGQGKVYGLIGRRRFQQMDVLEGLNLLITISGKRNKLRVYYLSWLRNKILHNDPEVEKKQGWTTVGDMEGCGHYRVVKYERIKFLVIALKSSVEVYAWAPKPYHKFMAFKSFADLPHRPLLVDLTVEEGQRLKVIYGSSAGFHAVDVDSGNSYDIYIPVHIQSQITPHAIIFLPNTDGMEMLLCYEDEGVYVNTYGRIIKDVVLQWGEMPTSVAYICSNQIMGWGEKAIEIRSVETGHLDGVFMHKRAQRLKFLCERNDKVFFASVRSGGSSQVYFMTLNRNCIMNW
Sequence of Rsk1(h) (Q15418 whole entry): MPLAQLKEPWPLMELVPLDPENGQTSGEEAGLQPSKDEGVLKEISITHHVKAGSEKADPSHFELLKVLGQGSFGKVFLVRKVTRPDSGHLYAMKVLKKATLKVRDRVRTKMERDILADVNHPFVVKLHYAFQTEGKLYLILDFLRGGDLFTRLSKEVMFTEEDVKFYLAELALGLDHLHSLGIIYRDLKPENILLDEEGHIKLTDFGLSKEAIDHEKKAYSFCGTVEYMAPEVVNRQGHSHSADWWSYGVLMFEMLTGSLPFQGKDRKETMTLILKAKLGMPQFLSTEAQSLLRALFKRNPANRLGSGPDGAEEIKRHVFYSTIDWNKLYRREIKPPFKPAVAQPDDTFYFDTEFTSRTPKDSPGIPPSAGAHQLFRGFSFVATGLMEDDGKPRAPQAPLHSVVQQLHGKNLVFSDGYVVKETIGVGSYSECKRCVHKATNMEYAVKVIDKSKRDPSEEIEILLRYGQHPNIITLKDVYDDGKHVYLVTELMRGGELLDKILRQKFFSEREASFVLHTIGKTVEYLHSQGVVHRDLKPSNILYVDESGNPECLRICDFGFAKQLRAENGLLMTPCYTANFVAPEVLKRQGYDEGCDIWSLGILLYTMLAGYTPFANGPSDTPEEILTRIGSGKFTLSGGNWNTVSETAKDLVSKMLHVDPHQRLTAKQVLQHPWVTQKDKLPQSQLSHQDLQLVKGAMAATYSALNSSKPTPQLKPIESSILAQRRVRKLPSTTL

| Substance | activity at 100 µM (MINK(h)) | activity at 100 µM (Rsk1(h)) | activity at 100 µM (HIPK2(h)) | activity at 100 µM (IKKα(h)) | % activity (FGFR4(h)) | % activity (SAPK2b(h)) | % activity (MINK(h); 100 μM) | % activity (Arg(h)) | % activity (TBK1(h)) | % activity (Rsk1(h); 100 μM) | % activity (HIPK2(h); 100 μM) | % activity (NEK11(h)) | % activity (IKKα(h); 100 μM) | % activity (PhKγ2(h)) |
| --- | --- | --- | --- | --- | --- | --- | --- | --- | --- | --- | --- | --- | --- | --- |
| H-YARAAARQARAKALARQLGVAA-OH [MMI-0100] | 96% | 86% | 98% | 108% |  |  |  |  |  |  |  |  |  |  |
| HRRIKAWLKKIKALARQLGVAA (Mammalian) [MMI-0500] |  |  |  |  | 3% | 42% | 5% | 22% | 16% | 34% | 38% | 2% | 50% | 16% |
| YARAAARQARAKALNRQLGVA (Mammalian) [MMI-0200] |  |  |  |  | 75% | 95% |  | 82% | 98% |  |  | 95% |  | 86% |
